Consider 1 molecule from patent US20230025129A1 (KYMAB, published 2023).

Assay [1] has as its target T1, human matriptase-2 ECD protein his tag (human, UniProt Q8IU80 78-811).
T1 construct: also called human MTP-2 ECD; huMTP-2
T1 sequence: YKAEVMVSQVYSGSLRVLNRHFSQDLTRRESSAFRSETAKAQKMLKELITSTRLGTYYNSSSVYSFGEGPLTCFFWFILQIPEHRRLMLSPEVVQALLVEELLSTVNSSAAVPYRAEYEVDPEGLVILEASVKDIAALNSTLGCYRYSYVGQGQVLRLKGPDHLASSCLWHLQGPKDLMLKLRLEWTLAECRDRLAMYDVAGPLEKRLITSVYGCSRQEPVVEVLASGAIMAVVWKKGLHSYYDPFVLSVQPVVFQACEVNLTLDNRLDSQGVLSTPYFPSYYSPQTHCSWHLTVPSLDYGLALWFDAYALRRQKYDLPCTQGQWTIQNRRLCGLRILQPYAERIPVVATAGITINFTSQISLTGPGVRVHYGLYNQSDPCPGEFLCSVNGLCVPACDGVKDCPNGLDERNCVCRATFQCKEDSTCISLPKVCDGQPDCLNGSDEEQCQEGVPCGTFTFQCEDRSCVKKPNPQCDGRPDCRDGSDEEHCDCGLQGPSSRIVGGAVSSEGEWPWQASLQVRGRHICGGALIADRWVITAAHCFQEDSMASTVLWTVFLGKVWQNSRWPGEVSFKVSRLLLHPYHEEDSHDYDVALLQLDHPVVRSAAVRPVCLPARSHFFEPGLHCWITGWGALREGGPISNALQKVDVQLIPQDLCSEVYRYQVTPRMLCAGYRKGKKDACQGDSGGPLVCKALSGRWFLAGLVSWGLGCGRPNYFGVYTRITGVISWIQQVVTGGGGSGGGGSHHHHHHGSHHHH
Briefly: SPR, his-tagged MTP-2 ECD protein (Table W); true KD could not be measured accurately, very slow off-rate. How it is done:
(§1) Off-rate screening was performed by surface plasmon resonance (SPR), using a Biacore 8K system (GE Healthcare). Anti-human Fc mix (˜1000 RU) were immobilised in both active and reference channels in HBS-P+ buffer (GE BR100671) pH 7.4. Anti-MTP-2 hulgG4PE antibodies were then captured for 60 sec at 10 μl/min at 1 μg/ml concentration (approximatively 35 and 50 RU were captured) only on the active channel. MTP-2 ECD protein analytes were then injected (at 100, 25, 6.25, 1.56 and 0 nM concentrations) for 120 sec (association time) at 30 μl/min and dissociation monitored for 600 sec. Multiple cycle kinetics mode was used with all 8 channels being used. Reference and background were subtracted from the sensorgrams for each antibody and data was fitted using a 1:1 interaction model in the Biacore evaluation software. Rmax, ka, kd globally fitted, RI=0.
(§2) NORI-011, NORI-008, NORI-003 and NORI-006 were all found to have cross-reactive binding to human, mouse, cyno and rat MTP-2 ECD proteins. […] The true KD value for NORI-008 could not be measured accurately for human or mouse MTP-2 due to a very slow off-rate.

Assay [2] addresses T2, mouse matriptase-2 ECD protein his tag (mouse, UniProt Q9DBI0 80-811).
T2 construct: aa 80-811 of Q9DBI0 with C-terminal linker and His tag; also called mouse MTP-2 ECD; moMTP-2
T2 sequence: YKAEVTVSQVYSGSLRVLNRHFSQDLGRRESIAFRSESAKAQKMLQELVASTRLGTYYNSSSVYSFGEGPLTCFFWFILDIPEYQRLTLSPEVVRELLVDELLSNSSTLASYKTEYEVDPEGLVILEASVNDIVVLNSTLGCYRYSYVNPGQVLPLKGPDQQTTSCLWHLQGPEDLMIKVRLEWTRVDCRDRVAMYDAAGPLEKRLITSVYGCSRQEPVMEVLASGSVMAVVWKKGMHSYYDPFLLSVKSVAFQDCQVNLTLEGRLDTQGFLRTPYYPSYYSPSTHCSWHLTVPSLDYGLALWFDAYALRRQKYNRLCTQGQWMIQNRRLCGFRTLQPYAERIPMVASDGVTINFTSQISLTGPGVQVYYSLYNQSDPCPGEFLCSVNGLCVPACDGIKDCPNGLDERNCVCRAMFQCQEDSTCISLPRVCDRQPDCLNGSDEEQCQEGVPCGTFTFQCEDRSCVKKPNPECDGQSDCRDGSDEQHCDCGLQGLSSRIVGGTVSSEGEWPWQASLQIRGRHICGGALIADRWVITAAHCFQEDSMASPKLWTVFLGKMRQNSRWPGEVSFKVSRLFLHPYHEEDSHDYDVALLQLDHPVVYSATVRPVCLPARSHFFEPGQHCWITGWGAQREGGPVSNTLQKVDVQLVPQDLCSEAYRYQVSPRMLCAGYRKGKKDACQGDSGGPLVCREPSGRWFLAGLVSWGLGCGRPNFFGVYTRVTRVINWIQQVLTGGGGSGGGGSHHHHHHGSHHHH
The description is as above. Here is the method: as §1, §2

B1: NORI-008 (antibody, human IgG4 S228P, kappa, V domains shown)
VH: QVQLQESGPGLVKPSETLSLTCSVSGGSVSSGRYYWTWIRQPPGKGLEWIGYISNSGNTNYNPSLKSRVTISLDTSKKQFSLSLSAVTAADTAVYYCARGFIYDYWFDPWGQGSLVTVSS
VL: DSQMTQSPSSLSASVGDRVTITCQASQDIDNYLNWYQQRPGKAPKLLIYDASKLETGVPSRFSGSGSGTDFTFTISSLQPEDFATYYCQQYGNLPITFGQGTRLDIKR
notes: human IgG4PE, kappa, in the in vitro assays; a mouse IgG1 format was used in one in vivo study only; also called NORI-008 hulgG4PE; NORI-008 IgG
For B1, the Kd (commonly the constant that tells how readily two partners part at equilibrium) in assay [1] is 0.0169 pM; in assay [2], 0.206 pM.
